Results from paper PMC6370785.

Key:
[1] = target: recombinant human TRAIL/Apo2 Ligand (rhTRAIL) (human) (UniProt P50591); test: SDS-PAGE and Western blot; 100 ng rhTRAIL as positive control on the same blot; whether BS3 was added to it is not told
[2] = target: soluble TRAIL (sTRAIL), secretable trimer-forming variant of human TRAIL (human | yeast) (UniProt P50591); test: cross-linking; 293T culture supernatant (48 h after transfection) with 1 mM BS3, 4-20% SDS-PAGE, Western blot with anti-TRAIL
[3] = target: soluble TRAIL (sTRAIL), secretable trimer-forming variant of human TRAIL (human | yeast) (UniProt P50591); test: SDS-PAGE and Western blot without cross-linker; 293T culture supernatant (48 h after transfection) without BS3, 4-20% SDS-PAGE, Western blot with anti-TRAIL

Row | stoichiometry N [1] | stoichiometry N [2] | stoichiometry N [3] | Substance
1 | 3 | – | – | recombinant human TRAIL/Apo2 Ligand (rhTRAIL) (from UniProt P50591 1-281)
2 | – | 3 | 2 | soluble TRAIL (sTRAIL), secretable trimer-forming variant of human TRAIL (from UniProt P50591 114-281) (ligand)
